Reference: patent US7067619 (LA JOLLA CANCER RESEARCH FOUNDATION, dated 2006)
Like-named read-outs stand apart in the source and are kept apart here. Bridge positions count the residues as written; N and C are the ends. Ends that are not written are not given here.

Experiments:
Test in all cases: phage panning on coated integrin
[1] = biological target: αvβ5 integrin isolated from human placental extract (human, UniProt P06756 31-1048; P18084 24-799)
Protocol: (§1) In the first panning, the integrins were coated at 5 µg per well, and the library pool was incubated for 4 hours at 25° C. in TBS buffer containing 1% bovine serum albumin and 1 mM MnCl_2 (α_5β_1, α_vβ_3) 1 mM MgCl_2 ($\alphaIIb\beta_3$) or 1 mM CaCl_2 (α_vβ_5).

[2] = biological target: T1, α5β1 integrin isolated from human placental extract (human, UniProt P08648 42-1049; P05556 21-798)
T1 construct: coated on plastic wells or captured by anti-α5 antibody; also called fibronectin receptor
Protocol: as §1

[3] = biological target: T1, α5β1 integrin isolated from human …; remark: listed apart in the source

αvβ5 integrin isolated from human placental extract, sequence (P06756 31-1048, chain 1 of 2): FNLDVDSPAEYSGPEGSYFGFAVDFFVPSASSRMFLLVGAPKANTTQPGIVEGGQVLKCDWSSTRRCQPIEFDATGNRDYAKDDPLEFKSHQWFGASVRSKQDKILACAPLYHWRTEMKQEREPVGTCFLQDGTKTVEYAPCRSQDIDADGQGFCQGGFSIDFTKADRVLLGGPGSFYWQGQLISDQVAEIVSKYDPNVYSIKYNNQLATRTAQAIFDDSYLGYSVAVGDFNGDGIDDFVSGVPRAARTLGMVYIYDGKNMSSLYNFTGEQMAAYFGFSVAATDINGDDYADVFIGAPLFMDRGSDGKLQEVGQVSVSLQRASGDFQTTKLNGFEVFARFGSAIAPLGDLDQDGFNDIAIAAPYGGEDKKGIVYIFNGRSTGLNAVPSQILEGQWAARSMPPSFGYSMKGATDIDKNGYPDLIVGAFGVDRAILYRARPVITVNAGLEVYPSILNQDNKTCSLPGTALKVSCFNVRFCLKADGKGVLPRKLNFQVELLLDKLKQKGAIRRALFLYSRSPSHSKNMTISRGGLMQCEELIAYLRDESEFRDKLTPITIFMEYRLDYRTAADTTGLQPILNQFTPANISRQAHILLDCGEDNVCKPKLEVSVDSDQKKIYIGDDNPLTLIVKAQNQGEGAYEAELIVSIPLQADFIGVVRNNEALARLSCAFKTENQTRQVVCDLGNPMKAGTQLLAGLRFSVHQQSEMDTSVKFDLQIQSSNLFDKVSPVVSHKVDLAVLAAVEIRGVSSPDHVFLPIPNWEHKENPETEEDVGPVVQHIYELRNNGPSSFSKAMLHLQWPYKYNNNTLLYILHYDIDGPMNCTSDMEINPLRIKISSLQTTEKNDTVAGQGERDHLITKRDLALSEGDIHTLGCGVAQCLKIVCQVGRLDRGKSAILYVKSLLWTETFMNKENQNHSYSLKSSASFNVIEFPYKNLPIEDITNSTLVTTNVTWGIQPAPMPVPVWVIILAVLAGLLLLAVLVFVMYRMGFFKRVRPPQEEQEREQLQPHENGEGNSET
αvβ5 integrin isolated from human placental extract, sequence (P18084 24-799, chain 2 of 2): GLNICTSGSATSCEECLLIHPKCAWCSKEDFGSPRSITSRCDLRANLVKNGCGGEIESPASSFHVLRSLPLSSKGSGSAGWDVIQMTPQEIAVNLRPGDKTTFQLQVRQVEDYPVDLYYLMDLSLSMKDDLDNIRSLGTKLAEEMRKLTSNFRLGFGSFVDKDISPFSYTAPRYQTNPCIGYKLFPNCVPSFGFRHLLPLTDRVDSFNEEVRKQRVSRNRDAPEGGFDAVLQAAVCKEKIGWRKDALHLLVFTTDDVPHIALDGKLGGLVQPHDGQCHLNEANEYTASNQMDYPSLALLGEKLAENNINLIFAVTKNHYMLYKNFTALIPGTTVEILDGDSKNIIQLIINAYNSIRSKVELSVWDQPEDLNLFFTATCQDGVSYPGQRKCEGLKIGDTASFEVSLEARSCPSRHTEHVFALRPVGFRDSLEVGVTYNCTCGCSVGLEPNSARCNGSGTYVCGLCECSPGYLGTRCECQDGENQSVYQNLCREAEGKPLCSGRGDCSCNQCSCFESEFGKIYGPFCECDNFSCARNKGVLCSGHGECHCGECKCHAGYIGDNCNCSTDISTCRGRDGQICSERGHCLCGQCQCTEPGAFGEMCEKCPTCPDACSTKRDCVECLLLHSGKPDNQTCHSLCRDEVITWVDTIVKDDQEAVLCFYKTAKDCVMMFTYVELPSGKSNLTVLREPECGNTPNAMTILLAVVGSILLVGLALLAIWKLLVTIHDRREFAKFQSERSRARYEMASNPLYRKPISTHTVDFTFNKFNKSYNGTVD
T1 sequence (P08648 42-1049, chain 1 of 2): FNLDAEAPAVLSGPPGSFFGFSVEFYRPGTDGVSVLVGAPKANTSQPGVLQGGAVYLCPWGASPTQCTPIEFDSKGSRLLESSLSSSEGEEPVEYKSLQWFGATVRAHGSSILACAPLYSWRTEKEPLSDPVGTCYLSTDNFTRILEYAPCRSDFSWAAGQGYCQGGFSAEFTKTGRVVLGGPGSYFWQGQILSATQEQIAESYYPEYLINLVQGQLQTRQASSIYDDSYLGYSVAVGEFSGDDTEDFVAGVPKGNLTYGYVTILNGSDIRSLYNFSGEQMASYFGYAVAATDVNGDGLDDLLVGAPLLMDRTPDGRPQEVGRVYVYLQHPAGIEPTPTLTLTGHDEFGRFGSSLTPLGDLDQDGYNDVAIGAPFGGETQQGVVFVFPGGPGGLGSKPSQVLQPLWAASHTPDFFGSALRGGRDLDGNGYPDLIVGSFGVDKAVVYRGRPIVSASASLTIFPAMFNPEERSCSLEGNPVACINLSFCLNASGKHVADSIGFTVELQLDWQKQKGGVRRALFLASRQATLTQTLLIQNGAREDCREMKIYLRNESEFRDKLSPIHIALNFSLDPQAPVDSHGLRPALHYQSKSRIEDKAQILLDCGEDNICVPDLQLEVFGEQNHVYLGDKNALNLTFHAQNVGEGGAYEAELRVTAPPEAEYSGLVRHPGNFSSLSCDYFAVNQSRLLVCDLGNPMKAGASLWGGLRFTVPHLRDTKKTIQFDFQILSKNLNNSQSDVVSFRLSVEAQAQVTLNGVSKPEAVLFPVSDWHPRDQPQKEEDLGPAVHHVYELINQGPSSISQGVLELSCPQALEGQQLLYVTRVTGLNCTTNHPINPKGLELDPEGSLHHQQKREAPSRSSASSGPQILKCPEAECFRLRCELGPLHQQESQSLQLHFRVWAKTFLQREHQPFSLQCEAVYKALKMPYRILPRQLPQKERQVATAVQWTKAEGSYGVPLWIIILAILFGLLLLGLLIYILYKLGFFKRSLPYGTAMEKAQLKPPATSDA
T1 sequence (P05556 21-798, chain 2 of 2): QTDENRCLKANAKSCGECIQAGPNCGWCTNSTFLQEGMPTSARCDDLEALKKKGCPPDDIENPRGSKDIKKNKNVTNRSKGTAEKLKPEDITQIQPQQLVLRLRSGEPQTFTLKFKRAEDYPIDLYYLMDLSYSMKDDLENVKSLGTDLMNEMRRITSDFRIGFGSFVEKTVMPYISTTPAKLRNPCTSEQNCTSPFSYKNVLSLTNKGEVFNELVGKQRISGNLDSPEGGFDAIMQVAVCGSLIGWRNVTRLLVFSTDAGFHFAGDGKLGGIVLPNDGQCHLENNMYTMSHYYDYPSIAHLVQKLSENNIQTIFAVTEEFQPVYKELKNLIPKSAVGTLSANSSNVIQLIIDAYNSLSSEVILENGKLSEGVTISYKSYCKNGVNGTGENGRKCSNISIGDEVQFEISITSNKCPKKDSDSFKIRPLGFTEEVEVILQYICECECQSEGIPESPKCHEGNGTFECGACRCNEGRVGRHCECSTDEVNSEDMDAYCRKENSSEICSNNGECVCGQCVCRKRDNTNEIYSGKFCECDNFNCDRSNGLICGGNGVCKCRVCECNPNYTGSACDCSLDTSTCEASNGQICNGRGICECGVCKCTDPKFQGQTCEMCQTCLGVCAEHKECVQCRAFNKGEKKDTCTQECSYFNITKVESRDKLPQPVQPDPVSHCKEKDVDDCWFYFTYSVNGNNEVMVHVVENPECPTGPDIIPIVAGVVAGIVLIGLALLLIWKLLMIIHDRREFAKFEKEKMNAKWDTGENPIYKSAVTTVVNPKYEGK

CIRRGDTFGC (on fuse 5 phage, fused to pIII) [CIRRGDTFGC phage]: binds [1].

CRGDTPGFLC (on fuse 5 phage, fused to pIII) [CRGDTPGFLC phage]: binds [1].

CMWLSVNYSC (on fuse 5 phage, fused to pIII) [CMWLSVNYSC phage]: binds [2].

CQVRGDQFAC (on fuse 5 phage, fused to pIII) [CQVRGDQFAC phage]: binds [1].

CRGDGYCVFF (on fuse 5 phage, fused to pIII) [CRGDGYCVFF phage]: binds [2].

CGQGMHRLAC (on fuse 5 phage, fused to pIII) [CGQGMHRLAC phage]: binds [2].

CIEIQHGKAC (on fuse 5 phage, fused to pIII) [CIEIQHGKAC phage]: binds [1].

CQGMHGTPAC (on fuse 5 phage, fused to pIII) [CQGMHGTPAC phage]: binds [2].

CVTRGDSFSC (on fuse 5 phage, fused to pIII) [CVTRGDSFSC phage]: binds [1].

CDWRGDNQFC (on fuse 5 phage, fused to pIII) [CDWRGDNQFC phage]: binds [2].

CDSVLRVFC (on fuse 5 phage, fused to pIII) [CDSVLRVFC phage]: binds [1].

CRGDVPAVGC (on fuse 5 phage, fused to pIII) [CRGDVPAVGC phage]: binds [1].

CVGKELHKRV (on fuse 5 phage, fused to pIII) [CVGKELHKRV phage]: binds [1].

CVSRGDTPKC (on fuse 5 phage, fused to pIII) [CVSRGDTPKC phage]: binds [1].

CIRQRIYPWC (on fuse 5 phage, fused to pIII) [CIRQRIYPWC phage]: binds [1].

CGQRSSARAS (on fuse 5 phage, fused to pIII) [CGQRSSARAS phage]: binds [1].

CRGDLPRAWC (on fuse 5 phage, fused to pIII) [CRGDLPRAWC phage]: binds [1].

CRSETYWKC (on fuse 5 phage, fused to pIII) [CRSETYWKC phage]: binds [3].

CYVNGRAWAC (on fuse 5 phage, fused to pIII) [CYVNGRAWAC phage]: binds [2].

CREQPASRSC (on fuse 5 phage, fused to pIII) [CREQPASRSC phage]: binds [2].

CGQRGDGFCL (on fuse 5 phage, fused to pIII) [CGQRGDGFCL phage]: binds [2].

CGPRERFLSC (on fuse 5 phage, fused to pIII) [CGPRERFLSC phage]: binds [1].

CRRETAWAC (on fuse 5 phage, fused to pIII) [CRRETAWAC phage]: binds [3].

CQGRGDTFYC (on fuse 5 phage, fused to pIII) [CQGRGDTFYC phage]: binds [1].

CPDKRGDTYC (on fuse 5 phage, fused to pIII) [CPDKRGDTYC phage]: binds [1].

CRGDGAWC (on fuse 5 phage, fused to pIII) [CRGDGAWC phage]: binds [2].

CRGDAAWC (on fuse 5 phage, fused to pIII) [CRGDAAWC phage]: binds [2].

CRGDGWWC (on fuse 5 phage, fused to pIII) [CRGDGWWC phage]: binds [2].

CRGDGLDC (on fuse 5 phage, fused to pIII) [CRGDGLDC phage]: binds [2].

CRGDGFLC (on fuse 5 phage, fused to pIII) [CRGDGFLC phage]: binds [2].

CRGDGWMC (on fuse 5 phage, fused to pIII) [CRGDGWMC phage]: binds [2].

CRGDGMLC (on fuse 5 phage, fused to pIII) [CRGDGMLC phage]: binds [2].

CRGDGLLC (on fuse 5 phage, fused to pIII) [CRGDGLLC phage]: binds [2].

CRGDGLIC (on fuse 5 phage, fused to pIII) [CRGDGLIC phage]: binds [2].

CRGDGWLC (on fuse 5 phage, fused to pIII) [CRGDGWLC phage]: binds [2].

CRGDAAHC (on fuse 5 phage, fused to pIII) [CRGDAAHC phage]: binds [2].

CRGDNAWC (on fuse 5 phage, fused to pIII) [CRGDNAWC phage]: binds [2].

CRGDGLWC (on fuse 5 phage, fused to pIII) [CRGDGLWC phage]: binds [2].

CRGDGLMC (on fuse 5 phage, fused to pIII) [CRGDGLMC phage]: binds [2].

CRGDGWIC (on fuse 5 phage, fused to pIII) [CRGDGWIC phage]: binds [2].

CRGDGMWC (on fuse 5 phage, fused to pIII) [CRGDGMWC phage]: binds [2].

CRGDNVWC (on fuse 5 phage, fused to pIII) [CRGDNVWC phage]: binds [2].

CRGDRAWC (on fuse 5 phage, fused to pIII) [CRGDRAWC phage]: binds [2].

CRGDGAFC (on fuse 5 phage, fused to pIII) [CRGDGAFC phage]: binds [2].

ECRRETAWAC (on fuse 5 phage, fused to pIII) [ECRRETAWAC phage]: binds [3].

CTNVNGRSAC (on fuse 5 phage, fused to pIII) [CTNVNGRSAC phage]: binds [2].

CTRKRAVGAA (on fuse 5 phage, fused to pIII) [CTRKRAVGAA phage]: binds [1].

CGRRGDVPRC (on fuse 5 phage, fused to pIII) [CGRRGDVPRC phage]: binds [1].

CSQKRGDTWC (on fuse 5 phage, fused to pIII) [CSQKRGDTWC phage]: binds [1].

CPVRRGDGWC (on fuse 5 phage, fused to pIII) [CPVRRGDGWC phage]: binds [2].

CAHRGDTPQC (on fuse 5 phage, fused to pIII) [CAHRGDTPQC phage]: binds [1].

CPRRGDTFSC (on fuse 5 phage, fused to pIII) [CPRRGDTFSC phage]: binds [1].

CKWRSARDLC (on fuse 5 phage, fused to pIII) [CKWRSARDLC phage]: binds [2].

CLRGDGLALC (on fuse 5 phage, fused to pIII) [CLRGDGLALC phage]: binds [2].

CQSRGDDFSC (on fuse 5 phage, fused to pIII) [CQSRGDDFSC phage]: binds [1].

CRGDCLPTPR (on fuse 5 phage, fused to pIII) [CRGDCLPTPR phage]: binds [2].

CEAKFQLHWV (on fuse 5 phage, fused to pIII) [CEAKFQLHWV phage]: binds [1].

CRGDGLMCGL (on fuse 5 phage, fused to pIII) [CRGDGLMCGL phage]: binds [2].

CTQRGDNFFC (on fuse 5 phage, fused to pIII) [CTQRGDNFFC phage]: binds [1].

CQGIDGTPAC (on fuse 5 phage, fused to pIII) [CQGIDGTPAC phage]: binds [2].

CVDCILRYLC (on fuse 5 phage, fused to pIII) [CVDCILRYLC phage]: binds [2].

CAPRGDHFAC (on fuse 5 phage, fused to pIII) [CAPRGDHFAC phage]: binds [1].

CWRGDHVMPC (on fuse 5 phage, fused to pIII) [CWRGDHVMPC phage]: binds [2].

CRGDGQHC (on fuse 5 phage, fused to pIII) [CRGDGQHC phage]: binds [2].

CRKQVMACTA (on fuse 5 phage, fused to pIII) [CRKQVMACTA phage]: binds [1].

CGSPLKSIKC (on fuse 5 phage, fused to pIII) [CGSPLKSIKC phage]: binds [1].

CYRGDADFWC (on fuse 5 phage, fused to pIII) [CYRGDADFWC phage]: binds [1].

CGADSEEGPC (on fuse 5 phage, fused to pIII) [CGADSEEGPC phage]: binds [2].

B1: CRGDGWC phage (peptide)
peptide: CRGDGWC
modifications: disulfide 1-7 (inferred)
notes: on fuse 5 phage, fused to pIII; also called phage expressing the peptide A*CRGDGWC*G; not shown: The pIII coat protein of the fuse 5 phage vector and its junction residues
B1: binds [2].

B2: CRGDGFC phage (peptide)
peptide: CRGDGFC
modifications: disulfide 1-7 (inferred)
notes: on fuse 5 phage, fused to pIII; not shown: The pIII coat protein of the fuse 5 phage vector and its junction residues
B2: binds [2].
